Measured values taken from patent US11402384B2 (Duke University, priority 2015, dated 2022).

Assay: Ratiometric fluorescence glucose titration of fluorescent conjugates
Type: binding
Set-up: key to Shape (fluorescence response to glucose) / Change (fluorescence response to glucose): m, monochromatic; d, dichromatic (i.e. spectral shape change); 0, no change
Settings: for Shape (fluorescence response to glucose): tsGBP2 cysteine scan; for Change (fluorescence response to glucose): tsGBP 13C affinity mutants, Acrylodan or Badan conjugates
Procedure, shortened: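 Single-cysteine glucose-binding protein mutants labelled site-specifically with thiol-reactive environmentally sensitive fluorophores; emission spectra recorded during glucose titration to detect ligand-mediated intensity and spectral-shape changes for ratiometric read-out. Temperature- and ligand-dependent fluorescence landscapes acquired in 1K steps; binding fitted to single-site fractional saturation.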

B1: M357 Acrylodan: tsGBP2_C357 (SEQ ID NO: 36) Acrylodan conjugate (conjugate)
chain: MKLEIFSWWAGDEGPALEALIRLYKQKYPGVEVINATVTGGAGVNAKAVLKTRMLGGDPPDTFQVHAGQELIGTWVVADRMEDLTSLFRQEGWLQAFPKGLIDLLSYKGGIWSVPVNIHRSNVMWYIPAKLKEWGVTPPKTWAEFLATAQTLKRKGLEAPLALGENWTQQHLWESVALATLGADGWNNLWSGKLKFTDPKAVAVWETFGKVLDAANKDAAGLSWQQAVDRVVQGKAAFNIMGDWAAGYMSTTLKLKPGTDFAWTPSPGTSGIFMMLSDSFGLPKGAKNRQNAINWLKLVGSKEGQDTFNPLKGSIAARLDSDPAKYNAYGQSAMKDWKSNRIVGSLVHGAVAPESFCSQFGTVMEIFLQSRNPQAAANAAQAIANQVGLGRGGSHHHHHH
modifications: Acrylodan conjugate; tsGBP2_C357 (357C substitution mutant with signal peptide replaced with M and a GGSHHHHHH at C-terminus)
Acrylodan conjugate
  Shape (fluorescence response to glucose): 0

B2: W8Y A: tsGBP2.13C.W8Y (SEQ ID NO: 39) Acrylodan conjugate (conjugate)
chain: MKLEIFSYWAGDCGPALEALIRLYKQKYPGVEVINATVTGGAGVNAKAVLKTRMLGGDPPDTFQVHAGQELIGTWVVADRMEDLTSLFRQEGWLQAFPKGLIDLLSYKGGIWSVPVNIHRSNVMWYIPAKLKEWGVTPPKTWAEFLATAQTLKRKGLEAPLALGENWTQQHLWESVALATLGADGWNNLWSGKLKFTDPKAVAVWETFGKVLDAANKDAAGLSWQQAVDRVVQGKAAFNIMGDWAAGYMSTTLKLKPGTDFAWTPSPGTSGIFMMLSDSFGLPKGAKNRQNAINWLKLVGSKEGQDTFNPLKGSIAARLDSDPAKYNAYGQSAMKDWKSNRIVGSLVHGAVAPESFMSQFGTVMEIFLQSRNPQAAANAAQAIANQVGLGRGGSHHHHHH
modifications: Acrylodan conjugate; tsGBP2.13C.W8Y (13C, 8Y double substitution mutant with signal peptide replaced with M and a GGSHHHHHH at C-terminus)
  Change (fluorescence response to glucose): m/d^c

B3: W8C Acrylodan: tsGBP2_C8 (SEQ ID NO: 17) Acrylodan conjugate (conjugate)
chain: MKLEIFSCWAGDEGPALEALIRLYKQKYPGVEVINATVTGGAGVNAKAVLKTRMLGGDPPDTFQVHAGQELIGTWVVADRMEDLTSLFRQEGWLQAFPKGLIDLLSYKGGIWSVPVNIHRSNVMWYIPAKLKEWGVTPPKTWAEFLATAQTLKRKGLEAPLALGENWTQQHLWESVALATLGADGWNNLWSGKLKFTDPKAVAVWETFGKVLDAANKDAAGLSWQQAVDRVVQGKAAFNIMGDWAAGYMSTTLKLKPGTDFAWTPSPGTSGIFMMLSDSFGLPKGAKNRQNAINWLKLVGSKEGQDTFNPLKGSIAARLDSDPAKYNAYGQSAMKDWKSNRIVGSLVHGAVAPESFMSQFGTVMEIFLQSRNPQAAANAAQAIANQVGLGRGGSHHHHHH
modifications: Acrylodan conjugate; tsGBP2_C8 (8C substitution mutant with signal peptide replaced with M and a GGSHHHHHH at C-terminus)
Acrylodan conjugate
  Shape (fluorescence response to glucose): m

B4: W8F B: tsGBP2.13C.W8F (SEQ ID NO: 37) Badan conjugate (conjugate)
chain: MKLEIFSFWAGDCGPALEALIRLYKQKYPGVEVINATVTGGAGVNAKAVLKTRMLGGDPPDTFQVHAGQELIGTWVVADRMEDLTSLFRQEGWLQAFPKGLIDLLSYKGGIWSVPVNIHRSNVMWYIPAKLKEWGVTPPKTWAEFLATAQTLKRKGLEAPLALGENWTQQHLWESVALATLGADGWNNLWSGKLKFTDPKAVAVWETFGKVLDAANKDAAGLSWQQAVDRVVQGKAAFNIMGDWAAGYMSTTLKLKPGTDFAWTPSPGTSGIFMMLSDSFGLPKGAKNRQNAINWLKLVGSKEGQDTFNPLKGSIAARLDSDPAKYNAYGQSAMKDWKSNRIVGSLVHGAVAPESFMSQFGTVMEIFLQSRNPQAAANAAQAIANQVGLGRGGSHHHHHH
modifications: Badan conjugate; tsGBP2.13C.W8F (13C, 8F double substitution mutant)
  Change (fluorescence response to glucose): 0

B5: W8F A: tsGBP2.13C.W8F (SEQ ID NO: 37) Acrylodan conjugate (conjugate)
chain: MKLEIFSFWAGDCGPALEALIRLYKQKYPGVEVINATVTGGAGVNAKAVLKTRMLGGDPPDTFQVHAGQELIGTWVVADRMEDLTSLFRQEGWLQAFPKGLIDLLSYKGGIWSVPVNIHRSNVMWYIPAKLKEWGVTPPKTWAEFLATAQTLKRKGLEAPLALGENWTQQHLWESVALATLGADGWNNLWSGKLKFTDPKAVAVWETFGKVLDAANKDAAGLSWQQAVDRVVQGKAAFNIMGDWAAGYMSTTLKLKPGTDFAWTPSPGTSGIFMMLSDSFGLPKGAKNRQNAINWLKLVGSKEGQDTFNPLKGSIAARLDSDPAKYNAYGQSAMKDWKSNRIVGSLVHGAVAPESFMSQFGTVMEIFLQSRNPQAAANAAQAIANQVGLGRGGSHHHHHH
modifications: Acrylodan conjugate; tsGBP2.13C.W8F (13C, 8F double substitution mutant)
  Change (fluorescence response to glucose): 0

B6: W9C Badan: tsGBP2_C9 (SEQ ID NO: 18) Badan conjugate (conjugate)
chain: MKLEIFSWCAGDEGPALEALIRLYKQKYPGVEVINATVTGGAGVNAKAVLKTRMLGGDPPDTFQVHAGQELIGTWVVADRMEDLTSLFRQEGWLQAFPKGLIDLLSYKGGIWSVPVNIHRSNVMWYIPAKLKEWGVTPPKTWAEFLATAQTLKRKGLEAPLALGENWTQQHLWESVALATLGADGWNNLWSGKLKFTDPKAVAVWETFGKVLDAANKDAAGLSWQQAVDRVVQGKAAFNIMGDWAAGYMSTTLKLKPGTDFAWTPSPGTSGIFMMLSDSFGLPKGAKNRQNAINWLKLVGSKEGQDTFNPLKGSIAARLDSDPAKYNAYGQSAMKDWKSNRIVGSLVHGAVAPESFMSQFGTVMEIFLQSRNPQAAANAAQAIANQVGLGRGGSHHHHHH
modifications: Badan conjugate; tsGBP2_C9 (9C substitution mutant with signal peptide replaced with M and a GGSHHHHHH at C-terminus)
Badan conjugate
  Shape (fluorescence response to glucose): m

B7: M357 Badan: tsGBP2_C357 (SEQ ID NO: 36) Badan conjugate (conjugate)
chain: MKLEIFSWWAGDEGPALEALIRLYKQKYPGVEVINATVTGGAGVNAKAVLKTRMLGGDPPDTFQVHAGQELIGTWVVADRMEDLTSLFRQEGWLQAFPKGLIDLLSYKGGIWSVPVNIHRSNVMWYIPAKLKEWGVTPPKTWAEFLATAQTLKRKGLEAPLALGENWTQQHLWESVALATLGADGWNNLWSGKLKFTDPKAVAVWETFGKVLDAANKDAAGLSWQQAVDRVVQGKAAFNIMGDWAAGYMSTTLKLKPGTDFAWTPSPGTSGIFMMLSDSFGLPKGAKNRQNAINWLKLVGSKEGQDTFNPLKGSIAARLDSDPAKYNAYGQSAMKDWKSNRIVGSLVHGAVAPESFCSQFGTVMEIFLQSRNPQAAANAAQAIANQVGLGRGGSHHHHHH
modifications: Badan conjugate; tsGBP2_C357 (357C substitution mutant with signal peptide replaced with M and a GGSHHHHHH at C-terminus)
Badan conjugate
  Shape (fluorescence response to glucose): m

B8: W9C Acrylodan: tsGBP2_C9 (SEQ ID NO: 18) Acrylodan conjugate (conjugate)
chain: MKLEIFSWCAGDEGPALEALIRLYKQKYPGVEVINATVTGGAGVNAKAVLKTRMLGGDPPDTFQVHAGQELIGTWVVADRMEDLTSLFRQEGWLQAFPKGLIDLLSYKGGIWSVPVNIHRSNVMWYIPAKLKEWGVTPPKTWAEFLATAQTLKRKGLEAPLALGENWTQQHLWESVALATLGADGWNNLWSGKLKFTDPKAVAVWETFGKVLDAANKDAAGLSWQQAVDRVVQGKAAFNIMGDWAAGYMSTTLKLKPGTDFAWTPSPGTSGIFMMLSDSFGLPKGAKNRQNAINWLKLVGSKEGQDTFNPLKGSIAARLDSDPAKYNAYGQSAMKDWKSNRIVGSLVHGAVAPESFMSQFGTVMEIFLQSRNPQAAANAAQAIANQVGLGRGGSHHHHHH
modifications: Acrylodan conjugate; tsGBP2_C9 (9C substitution mutant with signal peptide replaced with M and a GGSHHHHHH at C-terminus)
Acrylodan conjugate
  Shape (fluorescence response to glucose): m

B9: W8C Badan: tsGBP2_C8 (SEQ ID NO: 17) Badan conjugate (conjugate)
chain: MKLEIFSCWAGDEGPALEALIRLYKQKYPGVEVINATVTGGAGVNAKAVLKTRMLGGDPPDTFQVHAGQELIGTWVVADRMEDLTSLFRQEGWLQAFPKGLIDLLSYKGGIWSVPVNIHRSNVMWYIPAKLKEWGVTPPKTWAEFLATAQTLKRKGLEAPLALGENWTQQHLWESVALATLGADGWNNLWSGKLKFTDPKAVAVWETFGKVLDAANKDAAGLSWQQAVDRVVQGKAAFNIMGDWAAGYMSTTLKLKPGTDFAWTPSPGTSGIFMMLSDSFGLPKGAKNRQNAINWLKLVGSKEGQDTFNPLKGSIAARLDSDPAKYNAYGQSAMKDWKSNRIVGSLVHGAVAPESFMSQFGTVMEIFLQSRNPQAAANAAQAIANQVGLGRGGSHHHHHH
modifications: Badan conjugate; tsGBP2_C8 (8C substitution mutant with signal peptide replaced with M and a GGSHHHHHH at C-terminus)
Badan conjugate
  Shape (fluorescence response to glucose): m

B10: W8M B: tsGBP2.13C.W8M (SEQ ID NO: 38) Badan conjugate (conjugate)
chain: MKLEIFSMWAGDCGPALEALIRLYKQKYPGVEVINATVTGGAGVNAKAVLKTRMLGGDPPDTFQVHAGQELIGTWVVADRMEDLTSLFRQEGWLQAFPKGLIDLLSYKGGIWSVPVNIHRSNVMWYIPAKLKEWGVTPPKTWAEFLATAQTLKRKGLEAPLALGENWTQQHLWESVALATLGADGWNNLWSGKLKFTDPKAVAVWETFGKVLDAANKDAAGLSWQQAVDRVVQGKAAFNIMGDWAAGYMSTTLKLKPGTDFAWTPSPGTSGIFMMLSDSFGLPKGAKNRQNAINWLKLVGSKEGQDTFNPLKGSIAARLDSDPAKYNAYGQSAMKDWKSNRIVGSLVHGAVAPESFMSQFGTVMEIFLQSRNPQAAANAAQAIANQVGLGRGGSHHHHHH
modifications: Badan conjugate; tsGBP2.13C.W8M (13C, 8M double substitution mutant with signal peptide replaced with M and a GGSHHHHHH at C-terminus)
  Change (fluorescence response to glucose): m
